Values quoted from earlier work in article PMC3902607.

Target: RXFP2 (Homo sapiens) (UniProt Q8WXD0)
Chain of UniProt Q8WXD0 (Q8WXD0 whole entry): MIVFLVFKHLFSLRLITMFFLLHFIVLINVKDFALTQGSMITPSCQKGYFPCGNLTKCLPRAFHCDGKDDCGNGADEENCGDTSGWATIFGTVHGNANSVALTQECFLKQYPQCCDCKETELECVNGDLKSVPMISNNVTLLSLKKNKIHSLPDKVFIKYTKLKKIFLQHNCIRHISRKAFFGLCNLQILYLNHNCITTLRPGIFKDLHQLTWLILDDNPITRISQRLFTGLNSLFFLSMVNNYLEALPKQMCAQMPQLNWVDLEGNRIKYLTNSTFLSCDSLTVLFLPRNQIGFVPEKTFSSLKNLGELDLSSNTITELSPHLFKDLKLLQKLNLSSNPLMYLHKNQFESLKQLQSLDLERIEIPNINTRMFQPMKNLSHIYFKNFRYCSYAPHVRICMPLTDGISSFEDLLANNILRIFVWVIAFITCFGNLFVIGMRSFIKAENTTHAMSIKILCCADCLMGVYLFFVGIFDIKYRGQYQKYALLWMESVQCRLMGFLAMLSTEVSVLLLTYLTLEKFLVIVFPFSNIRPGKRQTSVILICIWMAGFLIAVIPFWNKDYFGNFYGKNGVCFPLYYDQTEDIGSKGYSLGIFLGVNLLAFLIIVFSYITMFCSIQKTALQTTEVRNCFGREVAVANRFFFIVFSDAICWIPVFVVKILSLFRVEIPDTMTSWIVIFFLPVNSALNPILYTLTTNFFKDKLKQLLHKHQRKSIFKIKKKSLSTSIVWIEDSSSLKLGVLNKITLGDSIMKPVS

For INSL3 (from UniProt P51460), the Kd is listed as less than 1 nM.
